Experimental data reported in patent EP1418184A1.

Target: IL-12 receptor on activated peripheral blood lymphocytes (human) (UniProt P42701)
Test: cell-based or functional assay

Substance: HRS3-scFv-hi-IL-12 fusion protein
- IFN-gamma secretion of preactivated T cells (ELISA, 48 h), activity against natural IL-12 at equimolar amounts (times lower than IL-12): 5 to 10
